Laboratory results taken from the supplement of paper PMC10126150.
± gives the standard deviation of the averaged measurements.

system: ATP; test: switch fluorescence ratio, 500 uM ATP over buffer (Cy3 cluster intensity, sum of 5 cycles each) (fold (ratio)); higher = stronger signal-on switching upon ATP binding; sequences stand for … in TCGTCGGCAGCGTCAGATGTGTATAAGAGACAGTTTTTTTTTTTTTTTTTTTTTTTTT…TC; conditions: aptamer strand: ATP DNA aptamer (quencher-CACCTGGGGGAGTATTGCGGAGGAAGG + anchor), 100 nM annealed; ATP concentration: 500 uM
Method in brief: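 Clusters with intensities outside 100-1000 RFU were excluded. The remaining Cy3-labelled switching-strand clusters on a modified Illumina MiSeq flow-cell had been annealed to 100 nM quencher-labelled ATP aptamer and imaged in selection buffer, then after 15 min with 500 uM ATP at 22 °C, for five cycles separated by NaOH stripping and re-annealing. The fluorescence ratio, averaged per switch-domain sequence, is each cluster's summed target-cycle Cy3 intensity over its summed buffer-cycle Cy3 intensity.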
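Note: ATP exposure 15 min at 22 °C before imaging.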

Row | Sequence | switch fluorescence ratio
1 | GTGATAATGG | 1.037 ± 0.0077
2 | GTGATACACG | 1.004 ± 0.0033
3 | GTGATAGATT | 1 ± 0.013
4 | GTGATAGGGG | 0.994 ± 0.053
5 | GTGATATAGC | 0.9807 ± 0.0071
6 | GTGATATCTG | 0.98 ± 0.038
7 | GTGATATGGG | 1.02 ± 0.036
8 | GTGATGAACG | 1.01 ± 0.092
9 | GTGATGGAAA | 0.964 ± 0.016
10 | GTGATGGGGT | 1.01 ± 0.038
11 | GTGATGTTGG | 1.02 ± 0.029
12 | GTGATTGCGG | 1.02 ± 0.069
13 | GTGATTGGCG | 0.971 ± 0.046
14 | GTGATTGGGG | 0.97 ± 0.028
15 | GTGATTGTTT | 1.009 ± 0.0091
16 | GTGCAAAATG | 1.0339 ± 0.00075
17 | GTGCGATTGG | 1.033 ± 0.0092
18 | GTGCGCAATT | 2.02 ± 0.082
19 | GTGCGGGCGC | 0.944 ± 0.04
20 | GTGCGTTTGG | 0.971 ± 0.022
21 | GTGCTAGTCT | 0.979 ± 0.067
22 | GTGCTTAGGA | 0.957 ± 0.029
23 | GTGCTTGGCC | 1 ± 0.047
24 | GTGCTTGTGT | 1.01 ± 0.04
25 | GTGCTTTGCG | 0.9928 ± 0.0014

Row | Sequence | switch fluorescence ratio
26 | GTGCTTTTGG | 0.9997 ± 0.008
27 | GTGGAAAGGA | 0.991 ± 0.024
28 | GTGGAAAGGG | 1.01 ± 0.041
29 | GTGGACACAC | 1.04 ± 0.035
30 | GTGGACCAGT | 0.972 ± 0.024
31 | GTGGACGG | 0.9733 ± 0.0022
32 | GTGGAGAAAT | 1.04 ± 0.047
33 | GTGGAGACGG | 0.988 ± 0.034
34 | GTGGAGGGGG | 0.9841 ± 0.0047
35 | GTGGAGGGTA | 1.01 ± 0.029
36 | GTGGATTGGC | 0.982 ± 0.035
37 | GTGGATTGTG | 0.971 ± 0.067
38 | GTGGCAGGTG | 2.53 ± 0.053
39 | GTGGCATAGC | 0.981 ± 0.023
40 | GTGGCGGGGG | 1.01 ± 0.026
41 | GTGGCTAACT | 1.04 ± 0.035
42 | GTGGCTTAGG | 0.9796 ± 0.0035
43 | GTGGCTTTTT | 1 ± 0.037
44 | GTGGGACCTT | 1.06 ± 0.069
45 | GTGGGACTGT | 1.015 ± 0.0021
46 | GTGGGAGCTG | 0.99 ± 0.0079
47 | GTGGGAGG | 1.02 ± 0.025
48 | GTGGGAGGAC | 1.078 ± 0.0018
49 | GTGGGATAGG | 0.985 ± 0.038
50 | GTGGGATTGA | 0.9898 ± 0.0043

Row | Sequence | switch fluorescence ratio
51 | GTGGGCATGG | 0.977 ± 0.022
52 | GTGGGCGGCG | 1.02 ± 0.064
53 | GTGGGGAATG | 0.986 ± 0.024
54 | GTGGGGAGCG | 0.994 ± 0.029
55 | GTGGGGAGTC | 0.992 ± 0.015
56 | GTGGGGAGTT | 0.99 ± 0.023
57 | GTGGGGCCTG | 0.955 ± 0.013
58 | GTGGGGCGTT | 1 ± 0.035
59 | GTGGGGGACA | 0.993 ± 0.04
60 | GTGGGGGGCG | 1 ± 0.042
61 | GTGGGGGTTC | 0.985 ± 0.041
62 | GTGGGGTCGA | 1.01 ± 0.04
63 | GTGGGGTTAT | 1 ± 0.013
64 | GTGGGTACCA | 0.968 ± 0.017
65 | GTGGGTATTA | 1 ± 0.023
66 | GTGGGTGATA | 0.994 ± 0.036
67 | GTGGGTGTGT | 1.02 ± 0.045
68 | GTGGTAAAGG | 0.9739 ± 0.0091
69 | GTGGTAAATG | 1.01 ± 0.035
70 | GTGGTAGCCG | 1.0015 ± 0.00029
71 | GTGGTCGATG | 0.953 ± 0.043
72 | GTGGTCGGGC | 1 ± 0.022
73 | GTGGTGAGGA | 0.953 ± 0.038
74 | GTGGTGATGT | 1.02 ± 0.012
75 | GTGGTGGCGG | 1.02 ± 0.017

Row | Sequence | switch fluorescence ratio
76 | GTGGTGGGTT | 0.975 ± 0.018
77 | GTGGTGTAAT | 0.992 ± 0.0023
78 | GTGTAACGGG | 0.995 ± 0.027
79 | GTGTATACAT | 0.977 ± 0.066
80 | GTGTATCCGT | 0.994 ± 0.018
81 | GTGTCAATTA | 1.01 ± 0.021
82 | GTGTCAGCGG | 0.9762 ± 0.0088
83 | GTGTCCGTTT | 1.05 ± 0.039
84 | GTGTCTGGGG | 0.9858 ± 0.0076
85 | GTGTGAAGGC | 1.03 ± 0.02
86 | GTGTGACAAA | 1 ± 0.037
87 | GTGTGAGGAG | 1.05 ± 0.081
88 | GTGTGAGGGC | 0.948 ± 0.035
89 | GTGTGAGGGT | 1.04 ± 0.053
90 | GTGTGAGTTC | 1.01 ± 0.017
91 | GTGTGCGGTG | 0.982 ± 0.015
92 | GTGTGGGGAC | 0.988 ± 0.044
93 | GTGTGGGT | 1.002 ± 0.0028
94 | GTGTGTGGCA | 1.03 ± 0.038
95 | GTGTGTTGAT | 0.989 ± 0.029
96 | GTGTTAAGGT | 0.99 ± 0.019
97 | GTGTTAAGTT | 0.987 ± 0.034
98 | GTGTTAGGGG | 1.02 ± 0.069
99 | GTGTTATTAG | 1.005 ± 0.007
100 | GTGTTATTGC | 0.953 ± 0.011

Row | Sequence | switch fluorescence ratio
101 | GTGTTCTGGA | 1.002 ± 0.006
102 | GTGTTGGATG | 0.958 ± 0.069
103 | GTGTTGGGGC | 0.985 ± 0.038
104 | GTGTTTAACC | 0.984 ± 0.021
105 | GTGTTTGGTG | 1 ± 0.032
106 | GTGTTTTCGT | 0.993 ± 0.03
107 | GTGTTTTGTT | 0.986 ± 0.034
108 | GTTAAAAATG | 1.04 ± 0.051
109 | GTTAAAATAC | 1.13 ± 0.014
110 | GTTAAACGTT | 1 ± 0.014
111 | GTTAATGGGT | 0.98 ± 0.047
112 | GTTAATTGGG | 0.953 ± 0.037
113 | GTTACACGGT | 1.01 ± 0.021
114 | GTTACTAATT | 0.9943 ± 0.0081
115 | GTTACTTGGT | 1.01 ± 0.034
116 | GTTAGAATAA | 0.958 ± 0.015
117 | GTTAGAGTTT | 0.988 ± 0.03
118 | GTTAGATTGT | 0.9731 ± 0.0039
119 | GTTAGCTTAG | 0.99 ± 0.025
120 | GTTAGGGGAG | 1 ± 0.042
121 | GTTAGGTACG | 1 ± 0.07
122 | GTTAGGTCAG | 0.997 ± 0.028
123 | GTTAGTAATC | 1.06 ± 0.014
124 | GTTAGTAGAT | 1.01 ± 0.019
125 | GTTAGTCTGT | 0.9907 ± 0.0052

Row | Sequence | switch fluorescence ratio
126 | GTTAGTGGGC | 0.971 ± 0.037
127 | GTTATAAGGG | 0.975 ± 0.03
128 | GTTATAAGTG | 0.9924 ± 0.0054
129 | GTTATAATGG | 0.9998 ± 0.0087
130 | GTTATAGCTT | 1.018 ± 0.0029
131 | GTTATAGGCT | 0.999 ± 0.035
132 | GTTATAGTAT | 0.963 ± 0.054
133 | GTTATATGTG | 0.982 ± 0.055
134 | GTTATATTGG | 0.992 ± 0.022
135 | GTTATATTTT | 1.01 ± 0.032
136 | GTTATGACTC | 1 ± 0.076
137 | GTTATGCTAT | 0.996 ± 0.017
138 | GTTATTCAAT | 0.9724 ± 0.0018
139 | GTTATTGCGA | 0.997 ± 0.019
140 | GTTATTTAGA | 1.03 ± 0.043
141 | GTTCAAAATT | 1.03 ± 0.036
142 | GTTCAAGGCT | 1.0016 ± 0.0002
143 | GTTCACCAAT | 1 ± 0.07
144 | GTTCACCGGG | 1.141 ± 0.0051
145 | GTTCAGTAGG | 0.9677 ± 0.0077
146 | GTTCCCAGGA | 1.09 ± 0.02
147 | GTTCGAACGA | 0.9856 ± 0.001
148 | GTTCGAACGG | 0.9963 ± 0.006
149 | GTTCGACCCG | 1.02 ± 0.032
150 | GTTCGACTGT | 1.024 ± 0.0042

Row | Sequence | switch fluorescence ratio
151 | GTTCGGATGG | 1.015 ± 0.0032
152 | GTTCGGCGGC | 0.991 ± 0.016
153 | GTTCGGGGTT | 1.014 ± 0.0016
154 | GTTCGTACGT | 0.962 ± 0.082
155 | GTTCGTTGAC | 0.9862 ± 0.0067
156 | GTTCGTTTTG | 0.975 ± 0.035
157 | GTTCTAAAAA | 1.02 ± 0.042
158 | GTTCTGTTGG | 0.995 ± 0.023
159 | GTTCTTACTT | 0.973 ± 0.059
160 | GTTCTTGGGA | 1.03 ± 0.077
161 | GTTCTTGGTG | 1.01 ± 0.0089
162 | GTTCTTTTGG | 0.973 ± 0.01
163 | GTTCTTTTTT | 0.9511 ± 0.0071
164 | GTTGAAAGGG | 1.03 ± 0.027
165 | GTTGAACAGT | 1.01 ± 0.065
166 | GTTGAAGGAC | 0.996 ± 0.026
167 | GTTGAAGGGG | 1.029 ± 0.009
168 | GTTGAATCTT | 0.995 ± 0.035
169 | GTTGACGCTA | 1.07 ± 0.024
170 | GTTGACTTAA | 1.02 ± 0.013
171 | GTTGATAGCG | 0.991 ± 0.025
172 | GTTGATAGTA | 0.993 ± 0.031
173 | GTTGATCTGC | 1 ± 0.029
174 | GTTGATTTTC | 1.017 ± 0.0079
175 | GTTGCAGCCT | 0.981 ± 0.018

Row | Sequence | switch fluorescence ratio
176 | GTTGCAGTTG | 1.07 ± 0.077
177 | GTTGCATATT | 0.978 ± 0.023
178 | GTTGCGACGG | 1 ± 0.028
179 | GTTGCGGGCG | 0.991 ± 0.06
180 | GTTGCTATTT | 1.0045 ± 0.00071
181 | GTTGCTGGTG | 1.025 ± 0.0071
182 | GTTGCTTAGT | 0.9724 ± 0.0038
183 | GTTGGAAGAG | 0.957 ± 0.051
184 | GTTGGAAGGT | 1.02 ± 0.012
185 | GTTGGCACGA | 1.04 ± 0.018
186 | GTTGGCAGTG | 0.978 ± 0.033
187 | GTTGGCCTCT | 1.02 ± 0.022
188 | GTTGGCGGGG | 0.976 ± 0.015
189 | GTTGGCGGGT | 1 ± 0.017
190 | GTTGGCGTTT | 1.02 ± 0.08
191 | GTTGGCTTGG | 1.02 ± 0.04
192 | GTTGGCTTTC | 1.019 ± 0.0077
193 | GTTGGGATGG | 0.991 ± 0.015
194 | GTTGGGCCGA | 1.03 ± 0.038
195 | GTTGGGGAAG | 0.972 ± 0.034
196 | GTTGGGGCAA | 1.03 ± 0.02
197 | GTTGGGGCGA | 1.02 ± 0.076
198 | GTTGGGGGGC | 0.992 ± 0.036
199 | GTTGGGTAAA | 0.983 ± 0.014
200 | GTTGGGTAGT | 0.9962 ± 0.006
